Legend:
Escherichia coli = assay: MIC, broth microdilution (CLSI M07-A9)
[1] = tested on: Streptococcus agalactiae, Group B; assay: MIC, broth microdilution (CLSI M07-A9); details: Group B (51)
Streptococcus pneumoniae = assay: MIC, broth microdilution (CLSI M07-A9); details: Streptococcus pneumoniae (26)
[2] = tested on: Staphylococcus lugdiensis; assay: MIC, broth microdilution (CLSI M07-A9); details: Staphylococcus lugdiensis (10)
MRSA strain MW2 = assay: Murine bacteremia, low challenge model; format: in vivo, BALB/c mice; details: single dose at 4 hours; 1.25 mg/kg PlySs2, 2 mg/kg daptomycin
MRSA [3] = assay: MIC, broth microdilution (CLSI M07-A9)
MRSA [4] = assay: Murine bacteremia, PlySs2 dose-response and blood CFUs; format: in vivo, mice; details: for decrease in CFUs in blood: 5.25 mg/kg at 2-hours post-infection
Klebsiella spp. = assay: MIC, human gut bacteria; format: cell-based; details: N 8
[5] = tested on: Streptococcus pyogenes, Group A; assay: MIC, broth microdilution (CLSI M07-A9); details: Group A (54)
MRSA strain 269 (MW2) = assay: Combination MIC in 15% surfactant (Survanta); format: cell-based, Staphylococcus aureus
DRSA = assay: MIC, broth microdilution (CLSI M07-A9)
LRSA = assay: MIC, broth microdilution (CLSI M07-A9); design: MIC 50% / MIC 90% / MIC Range: unit not given beside the values
Listeria monocytogenes = assay: MIC, broth microdilution (CLSI M07-A9); details: Listeria monocytogenes (12)
[6] = Staphylcoccus aureus Methicillin resistant (120)
[7] = Linezolid-resistant (5) Staphylococcus aureus

B1: PlySs2: bacteriophage lysin derived from Streptococcus suis, amino acid sequence of FIG. 29 (SEQ ID NO: 1) (protein, listed as Streptococcus suis)
chain: MTTVNEALNNVRAQVGSGVSVGNGECYALASWYERMISPDATVGLGAGVGWVSGAIGDTISAKNIGSSYNWQANGWTVSTSGPFKAGQIVTLGATPGNPYGHVVIVEAVDGDRLTILEQNYGGKRYPVRNYYSAASYRQQVVHYITPPGTVAQSAPNLAGSRSYRETGTMTVTVDALNVRRAPNTSGEIVAVYKRGESFDYDTVIIDVNGYVWVSYIGGSGKRNYVATGATKDGKRFGNAWGTFK
MIC 50% (Escherichia coli; Escherichia coli (6)): >512 µg/mL | MIC 90% (Escherichia coli; Escherichia coli (6)): >512 µg/mL | MIC Range (Escherichia coli; Escherichia coli (6)): >512 µg/mL | CF-301 MIC (Escherichia coli; Escherichia coli, N 10, human gut bacteria): >512 µg/mL | MIC 50% [1]: 8 µg/mL | MIC 90% [1]: 16 µg/mL | MIC Range [1]: 1 to 64 µg/mL | MIC 50% (Streptococcus pneumoniae): 16 µg/mL | MIC 90% (Streptococcus pneumoniae): 64 µg/mL | MIC Range (Streptococcus pneumoniae): 1 to 64 µg/mL | MIC 50% [2]: 8 µg/mL | MIC 90% [2]: 8 µg/mL | MIC Range [2]: 8 µg/mL | survival at 72 hours (MRSA strain MW2): 13% | MIC90 (MRSA [3]; MRSA (n = 45)): 0.15 µM | MIC 50% (MRSA [3]; [6]): 4 µg/mL | MIC 90% (MRSA [3]; [6]): 8 µg/mL | MIC Range (MRSA [3]; [6]): 1 to 16 µg/mL | MIC (MRSA [3]; strain MW2, without DTT): 32 µg/mL | protection (MRSA [4]; 5 mg/kg dose, data not shown): significant protection | decrease in CFUs in blood (MRSA [4]; in 15 minutes): 0.5 log10 | decrease in CFUs in blood (MRSA [4]; within the 60 minutes of treatment): 2 log10 | lowest dose with survival enhancement over mock-injected control (MRSA [4]; data not shown): 0.25 mg/kg | CF-301 MIC (Klebsiella spp.): >512 µg/mL | MIC 50% [5]: 2 µg/mL | MIC 90% [5]: 8 µg/mL | MIC Range [5]: 0.5 to 8 µg/mL | effective combination concentration as fraction of the MIC (MRSA strain 269 (MW2)): ⅛ | effective concentration in PlySs2 plus daptomycin combination MIC (MRSA strain 269 (MW2); 24 hours): 2 µg/mL | MIC90 (DRSA; DRSA (n = 8)): 0.15 µM | MIC Range (DRSA; Daptomycin-resistant (8) Staphylococcus aureus): 2000 to 4000 µg/mL | MIC90 (LRSA; LRSA (n = 5)): 0.08 µM | MIC 50% (LRSA; [7]): 2 | MIC 90% (LRSA; [7]): 2 | MIC Range (LRSA; [7]): 2-4 | MIC 50% (Listeria monocytogenes): 128 µg/mL | MIC 90% (Listeria monocytogenes): 512 µg/mL | MIC Range (Listeria monocytogenes): 1 to 512 µg/mL

Reference: US9889181B2, “Bacteriophage lysin and antibiotic combinations against gram positive bacteria” (priority 2012, dated 2018)
